Laboratory results as given in publication PMC8096239, “Nse5/6 is a negative regulator of the ATPase activity of the Smc5/6 complex”.

How the values were obtained:
Nse5/6 = biological target: T1, Nse5/6 (Saccharomyces cerevisiae, UniProt Q03718;P40026 1-556;1-464); assay: EMSA; more extensive concentration range; EMSA: 200 nM hairpin, 20 mM HEPES-NaOH pH 7.5, 150 mM NaCl, 0.5 mM TCEP, 30 min at 4 C; 0.8% TBE-agarose gel, 50 V, 3 h, 4 C; details: protein: recombinant, tags: Nse5-C.tag (GAAEPEA), HIS-3C-Nse6, copies: 1;1, label: fluorescein on position 5 of thymine, 6-carbon spacer, 48 bp stem, 4 nt loop AATA, blunt end
T1 sequence 1: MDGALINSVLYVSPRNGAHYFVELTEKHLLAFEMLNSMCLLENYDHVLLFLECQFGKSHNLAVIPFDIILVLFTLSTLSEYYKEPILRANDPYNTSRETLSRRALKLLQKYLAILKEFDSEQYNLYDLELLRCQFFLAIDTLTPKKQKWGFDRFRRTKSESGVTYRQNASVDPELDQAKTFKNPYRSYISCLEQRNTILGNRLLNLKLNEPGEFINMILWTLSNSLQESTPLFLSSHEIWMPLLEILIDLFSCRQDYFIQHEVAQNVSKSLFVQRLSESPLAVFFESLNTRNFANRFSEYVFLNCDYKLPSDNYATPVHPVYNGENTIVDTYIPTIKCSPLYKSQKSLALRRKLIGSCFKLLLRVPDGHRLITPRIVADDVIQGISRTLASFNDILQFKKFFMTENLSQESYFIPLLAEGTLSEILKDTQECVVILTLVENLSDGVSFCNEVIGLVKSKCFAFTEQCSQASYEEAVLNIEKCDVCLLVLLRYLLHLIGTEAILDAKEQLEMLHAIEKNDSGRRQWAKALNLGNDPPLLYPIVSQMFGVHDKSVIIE
T1 sequence 2: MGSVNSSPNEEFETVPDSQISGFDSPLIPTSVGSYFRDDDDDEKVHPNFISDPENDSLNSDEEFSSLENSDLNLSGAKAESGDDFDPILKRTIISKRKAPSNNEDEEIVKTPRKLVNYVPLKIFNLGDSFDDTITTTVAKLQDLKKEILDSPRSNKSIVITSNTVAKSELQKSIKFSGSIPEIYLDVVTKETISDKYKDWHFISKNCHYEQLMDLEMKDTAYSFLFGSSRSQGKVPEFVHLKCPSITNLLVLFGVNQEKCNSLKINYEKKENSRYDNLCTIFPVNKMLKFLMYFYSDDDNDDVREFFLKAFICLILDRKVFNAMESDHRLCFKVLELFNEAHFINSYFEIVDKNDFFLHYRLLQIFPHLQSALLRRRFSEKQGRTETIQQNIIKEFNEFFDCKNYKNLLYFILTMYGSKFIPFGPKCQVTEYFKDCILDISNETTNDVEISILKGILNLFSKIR

[1] = biological target: Smc5/6 core complex (S5-S6-N2) (Saccharomyces cerevisiae, UniProt Q08204;Q12749;P38632 1-1093;1-1114;1-267); assay: EMSA; some aggregated material in wells at high concentration; EMSA: 200 nM hairpin, 20 mM HEPES-NaOH pH 7.5, 150 mM NaCl, 0.5 mM TCEP, 30 min at 4 C; 0.8% TBE-agarose gel, 50 V, 3 h, 4 C; details: protein: recombinant, tags: Smc5-FLAG, Smc6-AVI-HIS, HA-Nse2, copies: 1;1;1, label: fluorescein on position 5 of thymine, 6-carbon spacer, 48 bp stem, 4 nt loop AATA, blunt end
Chain of Smc5/6 core complex (S5-S6-N2) (Q08204 whole entry, chain 1 of 3): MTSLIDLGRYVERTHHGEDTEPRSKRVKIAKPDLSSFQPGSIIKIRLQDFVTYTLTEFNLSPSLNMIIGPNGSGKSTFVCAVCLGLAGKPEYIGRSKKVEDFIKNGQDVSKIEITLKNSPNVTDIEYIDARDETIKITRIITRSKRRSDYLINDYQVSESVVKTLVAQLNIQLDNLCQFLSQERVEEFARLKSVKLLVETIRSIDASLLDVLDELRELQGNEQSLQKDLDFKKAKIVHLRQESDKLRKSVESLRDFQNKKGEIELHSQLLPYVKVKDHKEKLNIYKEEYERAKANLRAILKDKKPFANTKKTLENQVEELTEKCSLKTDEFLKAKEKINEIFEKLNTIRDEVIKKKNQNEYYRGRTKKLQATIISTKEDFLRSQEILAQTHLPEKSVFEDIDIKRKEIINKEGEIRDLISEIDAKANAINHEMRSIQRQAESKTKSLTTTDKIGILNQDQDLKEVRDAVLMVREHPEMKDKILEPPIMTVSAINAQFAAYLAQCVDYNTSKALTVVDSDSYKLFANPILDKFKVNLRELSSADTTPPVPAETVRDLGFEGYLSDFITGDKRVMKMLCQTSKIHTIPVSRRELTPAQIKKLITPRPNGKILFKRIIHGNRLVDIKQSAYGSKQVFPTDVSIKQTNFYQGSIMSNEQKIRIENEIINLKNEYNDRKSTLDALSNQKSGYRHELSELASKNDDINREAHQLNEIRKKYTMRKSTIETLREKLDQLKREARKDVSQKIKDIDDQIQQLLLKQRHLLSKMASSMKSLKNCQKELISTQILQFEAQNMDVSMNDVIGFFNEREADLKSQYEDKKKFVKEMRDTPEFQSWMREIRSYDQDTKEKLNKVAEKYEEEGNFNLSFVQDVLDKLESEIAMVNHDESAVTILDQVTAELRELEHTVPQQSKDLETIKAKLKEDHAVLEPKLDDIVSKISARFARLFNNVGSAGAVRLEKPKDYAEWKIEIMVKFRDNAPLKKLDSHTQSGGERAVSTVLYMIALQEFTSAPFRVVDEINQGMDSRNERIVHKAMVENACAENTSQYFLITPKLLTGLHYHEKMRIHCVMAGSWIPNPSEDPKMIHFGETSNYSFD
Chain of Smc5/6 core complex (S5-S6-N2) (Q12749 whole entry, chain 2 of 3): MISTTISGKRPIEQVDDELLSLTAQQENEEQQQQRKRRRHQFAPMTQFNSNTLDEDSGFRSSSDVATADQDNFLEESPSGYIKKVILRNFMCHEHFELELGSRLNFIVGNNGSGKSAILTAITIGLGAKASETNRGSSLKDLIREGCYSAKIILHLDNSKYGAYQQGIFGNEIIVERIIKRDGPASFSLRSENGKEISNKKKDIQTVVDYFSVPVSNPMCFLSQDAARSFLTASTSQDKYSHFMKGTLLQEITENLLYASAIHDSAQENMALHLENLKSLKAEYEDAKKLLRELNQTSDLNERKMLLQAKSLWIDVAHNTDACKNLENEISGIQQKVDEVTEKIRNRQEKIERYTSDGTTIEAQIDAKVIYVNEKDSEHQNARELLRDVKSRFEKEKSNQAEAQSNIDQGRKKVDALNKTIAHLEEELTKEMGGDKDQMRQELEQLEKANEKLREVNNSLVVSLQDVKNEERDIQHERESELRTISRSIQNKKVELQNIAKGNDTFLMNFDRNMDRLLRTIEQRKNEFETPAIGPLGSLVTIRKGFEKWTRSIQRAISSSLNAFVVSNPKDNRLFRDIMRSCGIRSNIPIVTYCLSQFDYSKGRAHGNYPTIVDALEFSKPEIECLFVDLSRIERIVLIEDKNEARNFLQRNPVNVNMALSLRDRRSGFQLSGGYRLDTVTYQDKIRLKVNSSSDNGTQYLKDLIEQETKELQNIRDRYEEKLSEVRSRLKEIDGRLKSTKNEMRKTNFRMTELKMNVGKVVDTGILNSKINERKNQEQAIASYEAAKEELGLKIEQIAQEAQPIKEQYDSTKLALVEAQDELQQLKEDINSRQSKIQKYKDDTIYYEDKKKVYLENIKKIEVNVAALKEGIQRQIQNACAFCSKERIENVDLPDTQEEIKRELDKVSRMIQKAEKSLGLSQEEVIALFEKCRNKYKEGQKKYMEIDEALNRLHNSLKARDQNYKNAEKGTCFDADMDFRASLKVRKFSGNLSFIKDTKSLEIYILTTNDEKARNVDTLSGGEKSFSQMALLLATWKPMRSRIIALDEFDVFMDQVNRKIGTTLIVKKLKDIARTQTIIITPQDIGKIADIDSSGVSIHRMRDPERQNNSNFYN
Chain of Smc5/6 core complex (S5-S6-N2) (P38632 whole entry, chain 3 of 3): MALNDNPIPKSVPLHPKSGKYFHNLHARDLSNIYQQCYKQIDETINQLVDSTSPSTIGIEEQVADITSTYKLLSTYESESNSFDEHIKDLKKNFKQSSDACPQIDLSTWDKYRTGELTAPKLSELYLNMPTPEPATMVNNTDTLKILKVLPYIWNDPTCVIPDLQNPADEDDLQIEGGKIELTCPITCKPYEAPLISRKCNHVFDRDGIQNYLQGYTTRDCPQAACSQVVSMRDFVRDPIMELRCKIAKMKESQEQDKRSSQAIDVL

[2] = biological target: Smc5/6 holo-complex (S5-S6-N2/N1-N3-N4) (Saccharomyces cerevisiae, UniProt Q08204;Q12749;P38632;Q07913;Q05541;P43124 1-1093;1-1114;1-267;1-336;1-303;1-402); assay: EMSA; Hill slope 3.5; 200 nM DNA; two shifted species; 3 repeats; EMSA: 200 nM hairpin, 20 mM HEPES-NaOH pH 7.5, 150 mM NaCl, 0.5 mM TCEP, 30 min at 4 C; 0.8% TBE-agarose gel, 50 V, 3 h, 4 C; details: protein: recombinant, tags: Smc5-FLAG, Smc6-AVI-HIS, HA-Nse2, HIS-TEV-Nse1, Nse3 untagged, Nse4-HALO-Myc, copies: 1;1;1;1;1;1, label: fluorescein on position 5 of thymine, 6-carbon spacer, 48 bp stem, 4 nt loop AATA, blunt end

B1: oligonucleotide C, self-annealed dsDNA hairpin (structured_DNA)
DNA: ATCAGTACTTGTCAACACGAGCAGCCCGTATATTCTCCTACAGCACTAAATATAGTGCTGTAGGAGAATATACGGGCTGCTCGTGTTGACAAGTACTGAT
modifications: internal fluorescein-dT (iFT), between S3 and S4 (position 51, in loop)
Nse5/6
  binding result: no binding
[1]
  binding result: no binding
[2]
  Kd: ~220 nM
